Measurements: article PMC10702826 (EMBO Reports, 2023)
Values belong to the molecule of their own block, whether it stands above or below them. Where no end group is shown, it is not given here.

Experiments:
[1] = biological target: charged UFC1 (UFC1~UFM1): isopeptide‐linked UFC1 T106S/C116K ‐ Strep‐tagged UFM1 covalent complex (UniProt Q9Y3C8); assay: ITC
[2] = biological target: T1, UFC1 (E2), wild type, uncharged (UniProt Q9Y3C8 1-167); assay: NMR titration
T1 sequence: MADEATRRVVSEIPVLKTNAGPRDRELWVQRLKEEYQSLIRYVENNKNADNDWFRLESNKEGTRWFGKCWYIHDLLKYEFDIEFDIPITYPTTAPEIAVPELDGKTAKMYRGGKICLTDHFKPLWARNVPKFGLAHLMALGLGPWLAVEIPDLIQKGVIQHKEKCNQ

[3] = biological target: T1, UFC1 (E2), wild type, uncharged; assay: ITC
UFC1 K47E = biological target: T2, UFC1 K47E (UniProt Q9Y3C8 1-167, K47E); assay: ITC
T2 sequence: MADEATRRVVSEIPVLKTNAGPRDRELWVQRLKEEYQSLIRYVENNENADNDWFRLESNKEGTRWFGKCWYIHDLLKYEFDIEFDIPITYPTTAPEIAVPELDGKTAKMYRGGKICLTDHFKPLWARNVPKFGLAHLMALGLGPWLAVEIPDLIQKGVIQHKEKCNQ

Kd [1]: 2.57 µM
Molecule: DDRGK1‐UFL1 fusion protein (DDRGK1 207–314 ‐ UFL1 1–200) (from UniProt Q96HY6;O94874)

Kd [1]: 0.23 µM
Molecule: DDRGK1ext‐UFL1 extended fusion protein (DDRGK1 87–314 ‐ UFL1 1–200) (from UniProt Q96HY6 87-314; O94874 1-200)

binding result [2]: binds
B1: UBA5 C‐terminus (UBA5 347–404) (domain or fragment)
chain: SEVSEEELKNFSGPVPDLPEGITVAYTIPKKQEDSVTELTVEDSGESLEDLMAKMKNM
modifications: also: uniformly 15N-labelled

Kd [3]: 2.3 µM
Kd (UFC1 K47E): 33.8 µM
B2: DDRGK1‐UFL1 fusion protein (DDRGK1 207–314 ‐ UFL1 1–200) (other)
chain: MTEEQSQSFLTEFINYIKQSKVVLLEDLASQVGLRTQDTINRIQDLLAEGTITGVIDDRGKFIYITPEELAAVANFIRQRGRVSIAELAQASNSLIAWGRESPAQAPAMADAWEEIRRLAADFQRAQFAEATQRLSERNCIEIVNKLIAQKQLEVVHTLDGKEYITPAQISKEMRDELHVRGGRVNIVDLQQVINVDLIHIENRIGDIIKSEKHVQLVLGQLIDENYLDRLAEEVNDKLQESGQVTISELCKTYDLPGNFLTQALTQRLGRIISGHIDLDNRGVIFTEAFVARHKARIRGLFSAITRP
